Patent publication US20220226430A1 (TEXAS A AND M UNIVERSITY SYSTEM, published 2022)

Molecular target: Clostridium difficile toxin B (TcdB) from C. difficile strain VPI 10463 (ribotype 087) (Clostridium difficile strain VPI 10463, UniProt P18177 2-2366)
Experiment: cell-based or functional assay

Clostridium difficile toxin B (TcdB) from C. difficile strain VPI 10463 (ribotype 087), sequence (P18177 2-2366): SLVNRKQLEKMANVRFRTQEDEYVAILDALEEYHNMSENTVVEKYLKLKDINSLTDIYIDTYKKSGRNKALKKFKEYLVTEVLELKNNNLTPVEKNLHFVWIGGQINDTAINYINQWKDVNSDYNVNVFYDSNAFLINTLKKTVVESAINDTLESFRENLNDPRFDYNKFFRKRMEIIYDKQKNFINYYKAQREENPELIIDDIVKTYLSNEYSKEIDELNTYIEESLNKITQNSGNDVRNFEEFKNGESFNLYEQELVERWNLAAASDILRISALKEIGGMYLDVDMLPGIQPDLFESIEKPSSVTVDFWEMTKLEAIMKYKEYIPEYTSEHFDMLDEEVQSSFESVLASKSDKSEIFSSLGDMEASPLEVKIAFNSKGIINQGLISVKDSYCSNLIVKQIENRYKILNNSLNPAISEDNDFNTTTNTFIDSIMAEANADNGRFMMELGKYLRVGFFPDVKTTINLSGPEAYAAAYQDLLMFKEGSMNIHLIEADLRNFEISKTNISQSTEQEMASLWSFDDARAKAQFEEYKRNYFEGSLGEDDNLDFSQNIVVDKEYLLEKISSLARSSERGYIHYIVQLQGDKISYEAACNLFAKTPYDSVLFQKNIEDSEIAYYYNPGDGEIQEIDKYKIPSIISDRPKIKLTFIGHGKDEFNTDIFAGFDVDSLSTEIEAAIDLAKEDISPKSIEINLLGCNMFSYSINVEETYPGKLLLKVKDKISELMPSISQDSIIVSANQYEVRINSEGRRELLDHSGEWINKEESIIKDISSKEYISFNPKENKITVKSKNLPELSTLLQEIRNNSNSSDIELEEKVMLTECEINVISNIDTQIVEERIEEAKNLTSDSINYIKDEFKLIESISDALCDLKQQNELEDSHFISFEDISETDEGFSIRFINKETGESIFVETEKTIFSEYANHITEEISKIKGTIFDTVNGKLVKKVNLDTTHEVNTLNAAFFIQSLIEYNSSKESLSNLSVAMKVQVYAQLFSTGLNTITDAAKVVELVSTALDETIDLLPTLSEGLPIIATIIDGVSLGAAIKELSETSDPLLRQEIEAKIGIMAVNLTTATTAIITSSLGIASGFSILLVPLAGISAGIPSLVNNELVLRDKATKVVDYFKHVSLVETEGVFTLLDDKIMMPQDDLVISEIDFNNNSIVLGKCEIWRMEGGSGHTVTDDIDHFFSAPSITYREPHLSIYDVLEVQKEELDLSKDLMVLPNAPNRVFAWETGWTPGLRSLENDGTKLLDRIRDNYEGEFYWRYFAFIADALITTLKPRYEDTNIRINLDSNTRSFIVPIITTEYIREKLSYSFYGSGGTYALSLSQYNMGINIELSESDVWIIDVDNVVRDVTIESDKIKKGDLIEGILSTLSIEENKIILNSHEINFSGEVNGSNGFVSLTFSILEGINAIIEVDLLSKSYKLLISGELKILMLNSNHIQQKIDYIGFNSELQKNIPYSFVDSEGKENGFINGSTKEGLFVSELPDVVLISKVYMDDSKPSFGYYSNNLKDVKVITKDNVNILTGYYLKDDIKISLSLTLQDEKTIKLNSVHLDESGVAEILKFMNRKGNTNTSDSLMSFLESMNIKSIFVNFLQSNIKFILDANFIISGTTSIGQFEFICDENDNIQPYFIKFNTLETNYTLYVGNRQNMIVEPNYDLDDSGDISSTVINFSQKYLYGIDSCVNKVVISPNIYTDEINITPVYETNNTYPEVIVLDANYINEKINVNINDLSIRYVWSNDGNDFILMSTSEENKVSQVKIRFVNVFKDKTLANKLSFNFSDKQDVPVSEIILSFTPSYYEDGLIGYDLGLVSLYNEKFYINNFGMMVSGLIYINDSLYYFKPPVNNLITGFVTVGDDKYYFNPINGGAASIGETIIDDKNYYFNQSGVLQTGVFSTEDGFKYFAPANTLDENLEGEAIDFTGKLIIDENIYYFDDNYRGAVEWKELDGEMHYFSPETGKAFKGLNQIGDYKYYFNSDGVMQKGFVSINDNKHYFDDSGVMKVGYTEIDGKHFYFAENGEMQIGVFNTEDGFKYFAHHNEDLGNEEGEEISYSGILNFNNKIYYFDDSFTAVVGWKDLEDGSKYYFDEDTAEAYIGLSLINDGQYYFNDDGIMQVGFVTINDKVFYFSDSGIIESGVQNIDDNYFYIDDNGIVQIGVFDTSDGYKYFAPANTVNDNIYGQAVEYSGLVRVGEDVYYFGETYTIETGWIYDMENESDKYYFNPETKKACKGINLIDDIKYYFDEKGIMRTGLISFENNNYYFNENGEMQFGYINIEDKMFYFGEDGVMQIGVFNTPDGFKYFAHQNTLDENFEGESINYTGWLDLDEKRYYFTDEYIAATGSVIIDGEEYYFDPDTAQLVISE

B1: DARPin 1.2E (designed binder, not shown: small tags and cut ends)
chain: GSDLGKKLLEAARAGQDDEVRILMANGADVNAYDARGVTPLHLAAFSGHLEIVEVLLKNGADVNAIDVIGMTPLHLAAWIGHLEIVEVLLKHGADVNAVDRSGNTPLHLAAWLGHLEIVEVLLKYGADVNAQDKFGKTAFDISIDNGNEDLAEILQSSS
In the case of B1, the “EC50 of TcdB neutralization (Vero cells, CellTiterGlo)” value is reported as 2.4 nM.

B2: DARPin 1.4E (designed binder, not shown: small tags and cut ends)
chain: GSDLGKKLLEAARAGQDDEVRILMANGADVNATDHLGVTPLHLAAVLGHLEIVEVLLKHGADVNAYDILGRTPLHLAAWRGHLEIVEVLLKYGADVNADDTSGTTPLHLAAGEGHLEIVEVLLKYGADVNAQDKFGKTAFDISIDNGNEDLAEILQSSS
For B2, the “EC50 of TcdB neutralization (Vero cells, CellTiterGlo)” value was 3 nM.

B3: DARPin U3 (designed binder, not shown: small tags and cut ends)
chain: GSDLGKKLLEAARAGQDDEVRILMANGADVNADDRIGMTPLHLAAIGGHLEIVEVLLKNGADVNADDVHGRTPLHLAAGRGHLEIVEVLHGADVNAPDRWGRTPLHLAAHHGHLEIVEVLLKYGADVNAQDKFGKTAFDISIDSGNEDLAEILQSSS
B3 was tested, and the “toxin-neutralization EC50 (Vero cells)” value was > 25 nM.

B4: DARPin 3.5B (designed binder, not shown: small tags and cut ends)
chain: GSDLGKKLLEAARAGQDDEVRILMANGADVNAKDTFGETPLHLAAWKGHLEIVEVLLKYGADVNASDLLGRTPLHLAAWRGHLEIVEVLLKNGADVNASDTGGYTPLHLAAALGHLEIVEVLLKHGADVNAQDKFGKTAFDISIDNGNEDLAEILQSSS
B4 was tested, and the “toxin-neutralization EC50” value was 13.3 nM.
